B1: library; numbered along this chain (parent)
chain: MRKPRAAVGSGHRKQAASQEGRQKHAKNNSQAKPSACDGLARQPEEVVLQASVSSYHLFRDVAEVTAFRGSLLSWYDQEKRDLPWRRRAEDEMDLDRRAYAVWVSEVMLQQTQVATVINYYTGWMQKWPTLQDLASASLEEVNQLWAGLGYYSRGRRLQEGARKVVEELGGHMPRTAETLQQLLPGVGRYTAGAIASIAFGQATGVVDGNVARVLCRVRAIGADPSSTLVSQQLWGLAQQLVDPARPGDFNQAAMELGATVCTPQRPLCSQCPVESLCRARQRVEQEQLLASGSLSGSPDVEECAPNTGQCHLCLPPSEPWDQTLGVVNFPRKASRKPPREESSATCVLEQPGALGAQILLVQRPNSGLLAGLWEFPSVTWEPSEQLQRKALLQELQRWAGPLPATHLRHLGEVVHTFSHIKLTYQVYGLALEGQTPVTTVPPGARWLTQEEFHTAAVSTAMKKVFRVYQGQQPGTCMGSKRSQVSSPCSRKKPRMGQQVLDNFFRSHISTDAHSLNSAAQ

Variants of: B1
Assay: 8OG:A repair function score (normalized; synonymous = 0, nonsense = -1) (normalized log-likelihood score); higher = more repair activity (WT-like)
Settings: with 8OG:A DNA repair reporter (GFP) in HEK-293 MUTYH KO cells
In short: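 Lentiviral MUTYH cDNA NNN codon-scan libraries in HEK-293 MUTYH knockout cells (10 pg/ml doxycycline) were co-transfected with an 8OG:A GFP repair reporter plus mCherry. At 72 h, viable mCherry+ cells were sorted into GFP+ (repair) and GFP− bins, three replicates per tile, then tile amplicons were sequenced. Per-tile Rosace fitness scores became a normalized repair function score anchored on synonymous and nonsense distributions. Synonymous medians were set to 0 and nonsense to -1; variants under 300 counts per million at the start were removed.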

8OG:A repair function score of substitutions, site by site:
D208: S -0.987; Q -1.01; H -1.01; F -1.04; L -1.03; M -0.974; P -1.04; W -1.02; V -0.996; I -1.02; R -1.03; Y -1.01; T -1.03; G -1; E -0.991; N -0.984; K -0.994; A -1.04; C -1.02
R213: W -1; N -0.963; S -1.01; F -1.01; I -0.997; L -1.01; A -1.02; Q -1.02; G -1.01; D -1.01; P -1.03; H -1.03; K -1; M -1.04; C -1.03; E -1.03; T -1.01; Y -0.997; V -1.01
R219: I -0.887; E -0.837; T -0.638; S -0.772; A -0.563; L -0.542; Q -0.682; P -1.02; F -0.485; W -0.783; K -0.381; D -0.946; H -0.593; M -0.571; Y -0.556; N -0.877; G -0.758; V -0.809; C -0.563
A220: I -0.848; E -0.465; D -0.821; C -0.411; F -0.676; H -0.555; G -0.13
R217: N -1.04; I -1.03; F -1.04; Q -1.03; D -1.02; K -1.03; S -1.03; E -1.03; H -0.835; M -0.936; P -1.04; L -1.01; T -1.02; Y -1.01; A -1.02; W -0.993; G -1.01; C -1.03; V -1.01
N210: W -1.01; F -1; R -1.03; A -0.876; S -1.03; L -0.937; K -1.04; E -0.997; T -1.03; H -0.833; V -0.927; P -0.658; Y -1; Q -0.95; C -0.854; I -1; D -1.03; M -0.923; G -0.962
V214: Q -0.911; G -0.9; C -0.56; M -0.207; E -0.927; L -0.0688; S -0.707; Y -0.782; P -1.01; N -0.833; I -0.231; K -0.957; W -0.258; H -0.795; F -0.287; A -0.504; R -1.01; T -0.495; D -1.02
C216: F -0.905; H -0.687; N -0.84; E -0.808; S -0.137; D -0.949; T -0.335; P -0.98; M -0.646; W -1; Y -0.886; G -0.663; I -0.57; Q -0.579; K -0.969; L -0.469; V -0.649; R -0.931; A -0.252
V218: N -0.444; W -0.74; A -0.268; H -0.41; R -1.03; E -0.985; Q -0.472; G -0.74; P -1.04; L -0.178; Y -0.62; K -1; I -0.196; D -0.983; F -0.436; S -0.374; M 0.0454; T -0.283; C -0.211
V211: W -0.594; G -0.791; I -0.0557; N -0.806; S -0.531; K -1; C -0.265; A -0.477; F -0.4; D -0.988; H -0.617; Y -0.329; P -1.02; L -0.586; E -0.951; R -1.02; T -0.428; M -0.251; Q -0.837
G205: K -0.961; N -0.947; S -0.352; E -0.592; L -1.03; Q -0.764; Y -0.873; C -0.378; F -0.891; M -0.711; D -0.933; A -0.145; T -0.773; R -0.953; I -0.994; H -0.8; P 0.0348; W -0.894; V -0.876
V207: L -0.375; C -0.542; I -0.363; P -1.01; Y -0.858; R -0.947; M -0.495; D -0.986; T -0.785; A -0.78; K -0.909; W -0.834; Q -0.868; G -1.03; H -0.941; F -0.875; S -0.875; N -0.883; E -1.03
A203: D -0.191; R 0.00374; P 0.109; E -0.0816; S -0.0724; C -0.101; Y -0.245; L -0.0917; K 0.0825; V 0.0414; H 0.0237; N -0.000873; Q 0.0356; I 0.0319; G -0.165; M -0.0505; W -0.183; T 0.03; F -0.255
V206: K -1.01; S -0.585; A -0.219; D -1.02; H -1.02; Y -1.01; T -0.338; M -0.563; C -0.0127; I -0.0438; Q -0.927; W -1.03; N -0.923; E -1.01; P -0.905; R -1.01; L -0.338; G -0.835; F -0.894
Q202: Y -0.329; W -0.586; V -0.0323; T -0.198; S -0.0817
L215: C -0.768; F -0.325; A -0.788; W -0.704; R -1.02; V -0.573; K -1.02; G -0.867; H -0.901; E -0.98; Q -0.871; N -0.967; I -0.331; S -0.957; T -0.86; D -0.968; Y -0.0538; M -0.129; P -1.03
G209: S 0.0281; H -0.659; I -0.359; K -0.788; W -0.876; Q -0.48; A -0.0943; N 0.0546; E -0.837; Y -0.757; D -0.851; L -0.534; V -0.00522; F -0.839; C 0.162; P -0.887; R -0.364; T -0.207
T204: N -0.117; R -0.0298; M -0.111; E 0.00943; S -0.127; A -0.0766; F -0.0751; D -0.103; P -0.903; I 0.0296; L -0.0721; G -0.452; Y -0.127; Q -0.045; K 0.0186; W -0.109; V 0.0534; H -0.234; C 0.0932
A212: D -0.814; E 0.196; R 0.0203; S -0.131; V -0.0975; M -0.344; F -0.426; N -0.24; Y -0.62; H -0.341; P -0.961; L -0.264; T -0.0386; Q -0.0874; G -0.254; I -0.333; C -0.00168; K -0.0378; W -0.596
